T1: HTRA3, P83110
T1 sequence (P83110 354-453, limits assumed, looked up): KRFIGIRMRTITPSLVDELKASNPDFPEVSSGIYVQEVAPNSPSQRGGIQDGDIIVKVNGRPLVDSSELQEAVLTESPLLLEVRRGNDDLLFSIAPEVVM

T2: FRMPD1, Q5SYB0
T2 sequence (Q5SYB0 52-145, limits assumed, looked up): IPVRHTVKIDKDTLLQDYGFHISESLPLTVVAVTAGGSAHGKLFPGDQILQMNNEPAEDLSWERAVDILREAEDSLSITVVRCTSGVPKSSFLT

T3: NHERF3_3, Q5T2W1
T3 sequence (Q5T2W1 238-333, limits assumed, looked up): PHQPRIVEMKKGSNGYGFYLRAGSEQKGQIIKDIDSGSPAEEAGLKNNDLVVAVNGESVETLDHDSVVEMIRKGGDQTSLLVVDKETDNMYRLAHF

T4: LIN7B, Q9HAP6
T4 sequence (Q9HAP6 88-185, limits assumed, looked up): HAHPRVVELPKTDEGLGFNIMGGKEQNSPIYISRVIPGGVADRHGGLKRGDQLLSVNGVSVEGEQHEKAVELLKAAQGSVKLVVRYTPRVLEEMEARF

T5: RHPN1, Q8TCX5
T5 sequence (Q8TCX5 508-602, limits assumed, looked up): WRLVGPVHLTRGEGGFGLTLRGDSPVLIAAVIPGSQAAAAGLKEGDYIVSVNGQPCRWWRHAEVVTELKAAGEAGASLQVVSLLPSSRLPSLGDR

T6: SNTA1, Q13424
T6 sequence (Q13424 82-180, limits assumed, looked up): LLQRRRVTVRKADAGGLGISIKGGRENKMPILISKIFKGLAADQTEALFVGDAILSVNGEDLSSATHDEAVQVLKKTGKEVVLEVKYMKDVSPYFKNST

T7: DLG3_2, Q92796
T7 sequence (Q92796 221-321, limits assumed, looked up): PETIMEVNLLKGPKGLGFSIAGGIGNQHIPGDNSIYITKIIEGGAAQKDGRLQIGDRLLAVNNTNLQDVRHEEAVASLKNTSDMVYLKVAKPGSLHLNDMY

T8: ARHGEF11, O15085
T8 sequence (O15085 42-136, limits assumed, looked up): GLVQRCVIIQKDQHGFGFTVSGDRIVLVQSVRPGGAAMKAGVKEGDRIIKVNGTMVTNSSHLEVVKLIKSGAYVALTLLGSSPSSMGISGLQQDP

T9: APBA1_1, Q02410
T9 sequence (Q02410 651-752, limits assumed, looked up): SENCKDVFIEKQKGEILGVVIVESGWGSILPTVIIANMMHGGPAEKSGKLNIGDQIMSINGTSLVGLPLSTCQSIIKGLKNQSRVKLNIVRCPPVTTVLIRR


target: MAGI2_3, Q86UL8; experiment: holdup assay; set-up: key: below the threshold = too weak to quantify, mostly under pKd 3.1 to 4; settings: plain residues with an end cap or a label only (N-terminal biotin on a linker: ado-ado)
Sequence (Q86UL8 600-682): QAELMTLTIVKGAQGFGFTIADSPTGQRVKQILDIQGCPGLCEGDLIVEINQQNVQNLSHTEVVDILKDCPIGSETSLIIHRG

| Binder | pKd |
| --- | --- |
| FNSYSLTGYV [CLDN2, P57739] | 3.63 |
| TKGPRGPTRV [SAPCD1, Q5SSQ6] | 4.69 |

target: T1, HTRA3, P83110; experiment: holdup assay; set-up: key: below the threshold = too weak to quantify, mostly under pKd 3.1 to 4; settings: plain residues with an end cap or a label only (N-terminal biotin on a linker: ado-ado)

| Binder | pKd |
| --- | --- |
| FNSYSLTGYV [CLDN2, P57739] | 4.6 |
| TKGPRGPTRV [SAPCD1, Q5SSQ6] | below the threshold |

target: GOPC, Q9HD26; experiment: holdup assay; set-up: key: below the threshold = too weak to quantify, mostly under pKd 3.1 to 4; settings: plain residues with an end cap or a label only (N-terminal biotin on a linker: ado-ado)

| Binder | pKd |
| --- | --- |
| FNSYSLTGYV [CLDN2, P57739] | 3.66 |
| TKGPRGPTRV [SAPCD1, Q5SSQ6] | 4.19 |

target: GORASP1, Q9BQQ3; experiment: holdup assay; set-up: key: below the threshold = too weak to quantify, mostly under pKd 3.1 to 4; settings: plain residues with an end cap or a label only (N-terminal biotin on a linker: ado-ado)
Sequence (Q9BQQ3 1-208): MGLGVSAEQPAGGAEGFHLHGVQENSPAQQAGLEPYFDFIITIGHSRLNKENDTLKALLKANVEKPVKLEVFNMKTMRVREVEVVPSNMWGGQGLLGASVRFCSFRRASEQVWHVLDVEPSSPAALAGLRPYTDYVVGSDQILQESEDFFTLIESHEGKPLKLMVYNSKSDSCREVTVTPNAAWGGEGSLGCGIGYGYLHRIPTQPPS

| Binder | pKd |
| --- | --- |
| FNSYSLTGYV [CLDN2, P57739] | 4.14 |
| TKGPRGPTRV [SAPCD1, Q5SSQ6] | 3.57 |

target: Inadl_4, Q8NI35; experiment: holdup assay; set-up: key: below the threshold = too weak to quantify, mostly under pKd 3.1 to 4; settings: plain residues with an end cap or a label only (N-terminal biotin on a linker: ado-ado)
Sequence (Q8NI35 547-651): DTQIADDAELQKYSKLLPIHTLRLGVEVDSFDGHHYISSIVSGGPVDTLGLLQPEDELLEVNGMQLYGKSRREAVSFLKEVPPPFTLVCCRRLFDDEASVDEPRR

| Binder | pKd |
| --- | --- |
| FNSYSLTGYV [CLDN2, P57739] | below the threshold |
| TKGPRGPTRV [SAPCD1, Q5SSQ6] | below the threshold |

target: FRMPD2_3, Q68DX3; experiment: holdup assay; set-up: key: below the threshold = too weak to quantify, mostly under pKd 3.1 to 4; settings: plain residues with an end cap or a label only (N-terminal biotin on a linker: ado-ado)
Sequence (Q68DX3 1073-1166): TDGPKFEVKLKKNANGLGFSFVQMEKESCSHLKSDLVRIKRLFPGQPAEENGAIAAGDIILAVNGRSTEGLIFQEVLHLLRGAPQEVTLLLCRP

| Binder | pKd |
| --- | --- |
| FNSYSLTGYV [CLDN2, P57739] | 4.28 |
| TKGPRGPTRV [SAPCD1, Q5SSQ6] | below the threshold |

target: Inadl_1, Q8NI35; experiment: holdup assay; set-up: key: below the threshold = too weak to quantify, mostly under pKd 3.1 to 4; settings: plain residues with an end cap or a label only (N-terminal biotin on a linker: ado-ado)
Sequence (Q8NI35 113-229): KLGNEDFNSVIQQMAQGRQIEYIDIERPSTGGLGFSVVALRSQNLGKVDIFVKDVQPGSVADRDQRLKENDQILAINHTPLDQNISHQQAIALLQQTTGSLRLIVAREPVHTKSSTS

| Binder | pKd |
| --- | --- |
| FNSYSLTGYV [CLDN2, P57739] | below the threshold |
| TKGPRGPTRV [SAPCD1, Q5SSQ6] | below the threshold |

target: FRMPD2_1, Q68DX3; experiment: holdup assay; set-up: key: below the threshold = too weak to quantify, mostly under pKd 3.1 to 4; settings: plain residues with an end cap or a label only (N-terminal biotin on a linker: ado-ado)
Sequence (Q68DX3 770-861): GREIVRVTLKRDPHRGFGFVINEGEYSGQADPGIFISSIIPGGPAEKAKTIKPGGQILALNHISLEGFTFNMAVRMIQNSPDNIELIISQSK

| Binder | pKd |
| --- | --- |
| FNSYSLTGYV [CLDN2, P57739] | 3.49 |
| TKGPRGPTRV [SAPCD1, Q5SSQ6] | 4.35 |

target: T2, FRMPD1, Q5SYB0; experiment: holdup assay; set-up: key: below the threshold = too weak to quantify, mostly under pKd 3.1 to 4; settings: plain residues with an end cap or a label only (N-terminal biotin on a linker: ado-ado)

| Binder | pKd |
| --- | --- |
| FNSYSLTGYV [CLDN2, P57739] | below the threshold |
| TKGPRGPTRV [SAPCD1, Q5SSQ6] | below the threshold |

target: MAGI3_2, Q5TCQ9; experiment: holdup assay; set-up: key: below the threshold = too weak to quantify, mostly under pKd 3.1 to 4; settings: plain residues with an end cap or a label only (N-terminal biotin on a linker: ado-ado)
Sequence (Q5TCQ9 398-503): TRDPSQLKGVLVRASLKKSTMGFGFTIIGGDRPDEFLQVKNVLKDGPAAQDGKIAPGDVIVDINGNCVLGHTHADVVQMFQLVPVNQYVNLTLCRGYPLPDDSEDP

| Binder | pKd |
| --- | --- |
| FNSYSLTGYV [CLDN2, P57739] | 4.21 |
| TKGPRGPTRV [SAPCD1, Q5SSQ6] | 5.41 |

target: GIPC2, Q8TF65; experiment: holdup assay; set-up: key: below the threshold = too weak to quantify, mostly under pKd 3.1 to 4; settings: plain residues with an end cap or a label only (N-terminal biotin on a linker: ado-ado)
Sequence (Q8TF65 112-203): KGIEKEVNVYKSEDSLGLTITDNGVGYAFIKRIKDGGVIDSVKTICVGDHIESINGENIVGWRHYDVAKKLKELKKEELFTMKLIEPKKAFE

| Binder | pKd |
| --- | --- |
| FNSYSLTGYV [CLDN2, P57739] | below the threshold |
| TKGPRGPTRV [SAPCD1, Q5SSQ6] | below the threshold |

target: T3, NHERF3_3, Q5T2W1; experiment: holdup assay; set-up: key: below the threshold = too weak to quantify, mostly under pKd 3.1 to 4; settings: plain residues with an end cap or a label only (N-terminal biotin on a linker: ado-ado)

| Binder | pKd |
| --- | --- |
| FNSYSLTGYV [CLDN2, P57739] | below the threshold |
| TKGPRGPTRV [SAPCD1, Q5SSQ6] | below the threshold |

target: T4, LIN7B, Q9HAP6; experiment: holdup assay; set-up: key: below the threshold = too weak to quantify, mostly under pKd 3.1 to 4; settings: plain residues with an end cap or a label only (N-terminal biotin on a linker: ado-ado)

| Binder | pKd |
| --- | --- |
| FNSYSLTGYV [CLDN2, P57739] | below the threshold |
| TKGPRGPTRV [SAPCD1, Q5SSQ6] | below the threshold |

target: T5, RHPN1, Q8TCX5; experiment: holdup assay; set-up: key: below the threshold = too weak to quantify, mostly under pKd 3.1 to 4; settings: plain residues with an end cap or a label only (N-terminal biotin on a linker: ado-ado)

| Binder | pKd |
| --- | --- |
| FNSYSLTGYV [CLDN2, P57739] | below the threshold |
| TKGPRGPTRV [SAPCD1, Q5SSQ6] | below the threshold |

target: Inadl_8, Q8NI35; experiment: holdup assay; set-up: key: below the threshold = too weak to quantify, mostly under pKd 3.1 to 4; settings: plain residues with an end cap or a label only (N-terminal biotin on a linker: ado-ado)
Sequence (Q8NI35 1425-1530): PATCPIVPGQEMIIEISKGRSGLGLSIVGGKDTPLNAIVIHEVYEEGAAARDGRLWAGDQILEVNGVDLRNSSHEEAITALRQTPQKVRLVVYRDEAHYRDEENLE

| Binder | pKd |
| --- | --- |
| FNSYSLTGYV [CLDN2, P57739] | 4.27 |
| TKGPRGPTRV [SAPCD1, Q5SSQ6] | 5.64 |

target: LNX1_3, Q8TBB1; experiment: holdup assay; set-up: key: below the threshold = too weak to quantify, mostly under pKd 3.1 to 4; settings: plain residues with an end cap or a label only (N-terminal biotin on a linker: ado-ado)
Sequence (Q8TBB1 500-596): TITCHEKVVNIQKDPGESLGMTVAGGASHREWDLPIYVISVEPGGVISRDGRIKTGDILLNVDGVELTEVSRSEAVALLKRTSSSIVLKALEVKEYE

| Binder | pKd |
| --- | --- |
| FNSYSLTGYV [CLDN2, P57739] | below the threshold |
| TKGPRGPTRV [SAPCD1, Q5SSQ6] | below the threshold |

target: NHERF4_4, Q86UT5; experiment: holdup assay; set-up: key: below the threshold = too weak to quantify, mostly under pKd 3.1 to 4; settings: plain residues with an end cap or a label only (N-terminal biotin on a linker: ado-ado)
Sequence (Q86UT5 464-550): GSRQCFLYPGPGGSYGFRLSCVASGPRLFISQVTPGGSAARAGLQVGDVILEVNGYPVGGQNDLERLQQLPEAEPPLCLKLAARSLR

| Binder | pKd |
| --- | --- |
| FNSYSLTGYV [CLDN2, P57739] | 3.99 |
| TKGPRGPTRV [SAPCD1, Q5SSQ6] | below the threshold |

target: DLG4_2, P78352; experiment: holdup assay; set-up: key: below the threshold = too weak to quantify, mostly under pKd 3.1 to 4; settings: plain residues with an end cap or a label only (N-terminal biotin on a linker: ado-ado)
Sequence (P78352 155-259): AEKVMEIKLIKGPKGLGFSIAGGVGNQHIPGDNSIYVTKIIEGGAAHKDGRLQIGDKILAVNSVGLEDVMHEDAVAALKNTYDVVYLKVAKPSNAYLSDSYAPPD

| Binder | pKd |
| --- | --- |
| FNSYSLTGYV [CLDN2, P57739] | 3.56 |
| TKGPRGPTRV [SAPCD1, Q5SSQ6] | 4.53 |

target: T6, SNTA1, Q13424; experiment: holdup assay; set-up: key: below the threshold = too weak to quantify, mostly under pKd 3.1 to 4; settings: plain residues with an end cap or a label only (N-terminal biotin on a linker: ado-ado)

| Binder | pKd |
| --- | --- |
| FNSYSLTGYV [CLDN2, P57739] | 3.64 |
| TKGPRGPTRV [SAPCD1, Q5SSQ6] | 4.39 |

target: T7, DLG3_2, Q92796; experiment: holdup assay; set-up: key: below the threshold = too weak to quantify, mostly under pKd 3.1 to 4; settings: plain residues with an end cap or a label only (N-terminal biotin on a linker: ado-ado)

| Binder | pKd |
| --- | --- |
| FNSYSLTGYV [CLDN2, P57739] | below the threshold |
| TKGPRGPTRV [SAPCD1, Q5SSQ6] | 4.13 |

target: Inadl_10, Q8NI35; experiment: holdup assay; set-up: key: below the threshold = too weak to quantify, mostly under pKd 3.1 to 4; settings: plain residues with an end cap or a label only (N-terminal biotin on a linker: ado-ado)
Sequence (Q8NI35 1673-1763): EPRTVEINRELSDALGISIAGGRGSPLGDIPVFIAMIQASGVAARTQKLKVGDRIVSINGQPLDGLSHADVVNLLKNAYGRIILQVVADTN

| Binder | pKd |
| --- | --- |
| FNSYSLTGYV [CLDN2, P57739] | below the threshold |
| TKGPRGPTRV [SAPCD1, Q5SSQ6] | below the threshold |

target: MAST2, Q6P0Q8; experiment: holdup assay; set-up: key: below the threshold = too weak to quantify, mostly under pKd 3.1 to 4; settings: plain residues with an end cap or a label only (N-terminal biotin on a linker: ado-ado)
Sequence (Q6P0Q8 1099-1202): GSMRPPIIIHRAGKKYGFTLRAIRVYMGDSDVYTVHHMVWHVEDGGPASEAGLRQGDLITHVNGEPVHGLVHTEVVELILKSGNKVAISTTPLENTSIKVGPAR

| Binder | pKd |
| --- | --- |
| FNSYSLTGYV [CLDN2, P57739] | 3.77 |
| TKGPRGPTRV [SAPCD1, Q5SSQ6] | 4.67 |

target: T8, ARHGEF11, O15085; experiment: holdup assay; set-up: key: below the threshold = too weak to quantify, mostly under pKd 3.1 to 4; settings: plain residues with an end cap or a label only (N-terminal biotin on a linker: ado-ado)

| Binder | pKd |
| --- | --- |
| FNSYSLTGYV [CLDN2, P57739] | 3.94 |
| TKGPRGPTRV [SAPCD1, Q5SSQ6] | 4.03 |

target: LNX1_2, Q8TBB1; experiment: holdup assay; set-up: key: below the threshold = too weak to quantify, mostly under pKd 3.1 to 4; settings: plain residues with an end cap or a label only (N-terminal biotin on a linker: ado-ado)
Sequence (Q8TBB1 371-470): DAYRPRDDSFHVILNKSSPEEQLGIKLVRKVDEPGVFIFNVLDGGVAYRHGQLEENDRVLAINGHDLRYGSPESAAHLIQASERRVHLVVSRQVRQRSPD

| Binder | pKd |
| --- | --- |
| FNSYSLTGYV [CLDN2, P57739] | 4.19 |
| TKGPRGPTRV [SAPCD1, Q5SSQ6] | below the threshold |

target: MAGI1_2, Q96QZ7; experiment: holdup assay; set-up: key: below the threshold = too weak to quantify, mostly under pKd 3.1 to 4; settings: plain residues with an end cap or a label only (N-terminal biotin on a linker: ado-ado)
Sequence (Q96QZ7 456-580): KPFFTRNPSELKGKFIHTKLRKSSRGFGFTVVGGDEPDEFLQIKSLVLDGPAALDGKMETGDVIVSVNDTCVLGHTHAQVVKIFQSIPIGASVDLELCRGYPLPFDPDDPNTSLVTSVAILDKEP

| Binder | pKd |
| --- | --- |
| FNSYSLTGYV [CLDN2, P57739] | below the threshold |
| TKGPRGPTRV [SAPCD1, Q5SSQ6] | 4.19 |

target: T9, APBA1_1, Q02410; experiment: holdup assay; set-up: key: below the threshold = too weak to quantify, mostly under pKd 3.1 to 4; settings: plain residues with an end cap or a label only (N-terminal biotin on a linker: ado-ado)

| Binder | pKd |
| --- | --- |
| FNSYSLTGYV [CLDN2, P57739] | below the threshold |
| TKGPRGPTRV [SAPCD1, Q5SSQ6] | below the threshold |

target: Inadl_6, Q8NI35; experiment: holdup assay; set-up: key: below the threshold = too weak to quantify, mostly under pKd 3.1 to 4; settings: plain residues with an end cap or a label only (N-terminal biotin on a linker: ado-ado)
Sequence (Q8NI35 1058-1167): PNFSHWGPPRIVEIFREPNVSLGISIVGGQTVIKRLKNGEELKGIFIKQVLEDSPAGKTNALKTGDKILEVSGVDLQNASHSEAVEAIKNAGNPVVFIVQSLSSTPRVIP

| Binder | pKd |
| --- | --- |
| FNSYSLTGYV [CLDN2, P57739] | below the threshold |
| TKGPRGPTRV [SAPCD1, Q5SSQ6] | below the threshold |

target: PARD3_3, Q8TEW0; experiment: holdup assay; set-up: key: below the threshold = too weak to quantify, mostly under pKd 3.1 to 4; settings: plain residues with an end cap or a label only (N-terminal biotin on a linker: ado-ado)
Sequence (Q8TEW0 582-685): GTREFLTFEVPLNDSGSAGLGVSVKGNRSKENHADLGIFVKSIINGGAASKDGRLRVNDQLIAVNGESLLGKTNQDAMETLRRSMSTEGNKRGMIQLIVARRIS

| Binder | pKd |
| --- | --- |
| FNSYSLTGYV [CLDN2, P57739] | 4.04 |
| TKGPRGPTRV [SAPCD1, Q5SSQ6] | below the threshold |

— PMC9482650, “Quantitative fragmentomics allow affinity mapping of interactomes” (Nature Communications, 2022)
